Target: His-tagged encapsulin from Thermotoga maritima (Thermotoga maritima)
Experiment: co-purification

stoichiometry N (mSOG molecules per nanocompartment): 7
Substance: ESig-tagged mini-Singlet Oxygen Generator (miniSOG)

Source: publication doi:10.1101/2020.06.06.138305
